Assay results taken from paper PMC9108986, “Bioinformatic identification of previously unrecognized amyloidogenic proteins” (The Journal of Biological Chemistry, 2022).
Numbering of substitutions follows the chain as printed. Numbers in names are those of the source.

Target: the molecule itself
Experiment: amyloid fibre formation (thioflavin T fluorescence + electron microscopy + X-ray fibre diffraction); self-association into fibres; 50 uM protein in 1x PBS with 40 uM ThT, 37 °C, 700 rpm double orbital shaking with a PTFE bead, ~138 h; end-point samples imaged by negative-stain TEM; fibres diffracted (rings at 4.7 and 10 Å)

B1: mCherry-fused low-complexity domain of TFG, residues 237-327, G269V (domain or fragment, human, UniProt Q92734 237-327, looked up)
chain: GQIEGQMYQQYQQQAGYGAQQPQAPPQQPQQYVIQYSASYSQQTGPQQPQQFQGYGQQPTSQAPAPAFSGQPQQLPAQPPQQYQASNYPAQ
notes: TRK-fused gene protein (TFG), human, low-complexity domain, residues 237-327, with the documented pathogenic mutation G269V (Charcot-Marie-Tooth disease type 2); also called TFG (237-327) G269V; mutant construct; source: E. coli BL21(DE3) Gold, purified (nickel-nitrilotriacetic acid, size-exclusion chromatography), dialyzed into PBS
B1: binds.

B2: mCherry-fused low-complexity domain of TFG, residues 237-327, P285L (domain or fragment, human, UniProt Q92734 237-327, looked up)
chain: B1 chain with V33G, P49L
notes: also called TFG (237-327) P285L; mutant construct; source: E. coli BL21(DE3) Gold, purified (nickel-nitrilotriacetic acid, size-exclusion chromatography), dialyzed into PBS
B2: binds.
